Measurements: patent US20030104423A1 (WISCONSIN ALUMNI RESEARCH FOUNDATION, published 2003)

Tests used:
[1] = biological target: T1, σ70, native, untagged (pLN12) (Escherichia coli, UniProt P00579 1-613); experiment: Ni-NTA co-immobilization, SDS-PAGE
T1 construct: range 1-613; also called native ?^70

[2] = biological target: T2, Bovine serum albumin (bovine, UniProt P02769 25-607); experiment: Ni-NTA co-immobilization, SDS-PAGE
T2 construct: also called BSA

[3] = biological target: T3, β′ 1-1407 wild type with C-terminal His6 (pTA577) (Escherichia coli, UniProt P0A8T7 1-1407); experiment: Assembly Eσ32 holo: co-purification with His6-β′ from cells, Western blot; grade
T3 construct: range 1-1407; also called wt; wild type β′
Method: (§1) The cultures were grown at 37° C. with shaking until the A₆₀₀=0.4 for log phase assays and 2 hours longer (A₆₀₀ about 2.0) for the early stationary phase assays. The cells were harvested by centrifugation at 6,000 rpm for 10 minutes and stored at −20° C. until use. The cell pellets were resuspended in 5 ml TE (10 mM Tris-HCl, pH 7.9 and 0.1 mM EDTA) plus 0.15 M NaCl and lysozyme (0.1 mg/ml) then incubated on ice for 15 minutes. The cells were sonicated 2×30 seconds and centrifuged for 25 minutes at 27,000× g to pellet the insoluble material. […] The column was washed with 15 ml TE plus 0.15 M NaCl followed by a second wash with 10 ml TE plus 0.5 M NaCl. The protein was eluted from the column with 4 ml TE plus 0.7 M NaCl and 30% propylene glycol. The eluted sample (4 ml) was diluted with 6 ml buffer B (20 mM Tris-HCl, pH 7.9, 500 mM NaCl, 5 mM imidazole, 0.1% (v/v) Tween 20, and 10% (v/v) glycerol) and loaded (2×) onto 500 μl of Ni²⁺-NTA resin. The resin was washed (2×) with 5 ml of buffer B and eluted with 0.5 ml buffer B plus 0.25 M imidazole. Samples from the elution fractions were assayed by Western blot as described above using Mabs to each subunit or a factor. The secondary antibodies were horseradish peroxidase-labeled goat antimouse IgG antibodies and the signal was generated using the ECL+ substrate system (Amersham) and detected using the STORM FluoroImager and quantitated with IMAGEQUANT software (Molecular Dynamics).

[4] = biological target: T4, β′ 1-1407 N266D with C-terminal His6 (pTA600) (Escherichia coli, UniProt P0A8T7 1-1407); experiment: as above
T4 construct: range 1-1407
Method: as §1

[5] = biological target: T5, β′ 1-1407 Y269A with C-terminal His6 (pTA601) (Escherichia coli, UniProt P0A8T7 1-1407); experiment: as above
T5 construct: range 1-1407
Method: as §1

[6] = biological target: T6, β′ 1-1407 R275Q with C-terminal His6 (pTA602) (Escherichia coli, UniProt P0A8T7 1-1407); experiment: as above
T6 construct: range 1-1407
Method: as §1

[7] = biological target: T7, β′ 1-1407 K280E with C-terminal His6 (pTA603) (Escherichia coli, UniProt P0A8T7 1-1407); experiment: as above
T7 construct: range 1-1407
Method: as §1

[8] = biological target: T8, β′ 1-1407 R293Q with C-terminal His6 (pTA604) (Escherichia coli, UniProt P0A8T7 1-1407); experiment: as above
T8 construct: range 1-1407
Method: as §1

[9] = biological target: T9, β′ 1-1407 E295K with C-terminal His6 (pTA605) (Escherichia coli, UniProt P0A8T7 1-1407); experiment: as above
T9 construct: range 1-1407
Method: as §1

[10] = biological target: T10, β′ 1-1407 R297S with C-terminal His6 (pTA606) (Escherichia coli, UniProt P0A8T7 1-1407); experiment: as above
T10 construct: range 1-1407
Method: as §1

[11] = biological target: T11, β′ 1-1407 Q300E with C-terminal His6 (pTA607) (Escherichia coli, UniProt P0A8T7 1-1407); experiment: as above
T11 construct: range 1-1407
Method: as §1

[12] = biological target: T12, β′ 1-1407 A302D with C-terminal His6 (pTA608) (Escherichia coli, UniProt P0A8T7 1-1407); experiment: as above
T12 construct: range 1-1407
Method: as §1

[13] = biological target: T13, β′ 1-1407 N309D with C-terminal His6 (pTA609) (Escherichia coli, UniProt P0A8T7 1-1407); experiment: as above
T13 construct: range 1-1407
Method: as §1

[14] = biological target: T3, β′ 1-1407 wild type with C-terminal …; experiment: co-purification with His6-β′ from cells, Western blot
[15] = biological target: T10, β′ 1-1407 R297S with C-terminal His6 …; experiment: as above
[16] = biological target: T11, β′ 1-1407 Q300E with C-terminal His6 …; experiment: as above

T2 sequence (P02769 25-607 limits assumed): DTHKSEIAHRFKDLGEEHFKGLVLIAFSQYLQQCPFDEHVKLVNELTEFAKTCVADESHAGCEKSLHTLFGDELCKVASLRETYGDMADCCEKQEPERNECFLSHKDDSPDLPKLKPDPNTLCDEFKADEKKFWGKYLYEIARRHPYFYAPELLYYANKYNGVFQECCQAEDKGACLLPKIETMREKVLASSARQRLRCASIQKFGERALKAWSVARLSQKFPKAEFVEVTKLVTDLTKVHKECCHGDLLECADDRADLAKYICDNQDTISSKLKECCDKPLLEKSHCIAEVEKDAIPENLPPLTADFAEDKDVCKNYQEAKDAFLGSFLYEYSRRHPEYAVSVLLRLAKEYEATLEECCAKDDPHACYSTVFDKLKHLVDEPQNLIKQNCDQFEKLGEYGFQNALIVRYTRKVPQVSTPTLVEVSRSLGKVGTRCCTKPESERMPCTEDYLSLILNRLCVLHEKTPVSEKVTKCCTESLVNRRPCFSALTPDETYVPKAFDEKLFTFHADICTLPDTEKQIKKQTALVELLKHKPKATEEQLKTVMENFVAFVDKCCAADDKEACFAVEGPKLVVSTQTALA

B1: His6-HMK-β′1-309 (pTA525) (enzyme)
chain: MKDLLKFLKAQTKTEEFDAIKIALASPDMIRSWSFGEVKKPETINYRTFKPERDGLFCARIFGPVKDYECLCGKYKRLKHRGVICEKCGVEVTQTKVRRERMGHIELASPTAHIWFLKSLPSRIGLLLDMPLRDIERVLYFESYVVIEGGMTNLERQQILTEEQYLDALEEFGDEFDAKMGAEAIQALLKSMDLEQECEQLREELNETNSETKRKKLTKRIKLLEAFVQSGNKPEWMILTVLPVLPPDLRPLVPLDGGRFATSDLNDLYRRVINRNNRLKRLLDLAAPDIIVRNEKRMLQEAVDALLDN
[1]
  binding result: binds
[2]
  binding result: no binding

B2: σ32 of E. coli (the cell's own) (other)
chain: MTDKMQSLALAPVGNLDSYIRAANAWPMLSADEERALAEKLHYHGDLEAAKTLILSHLRFVVHIARNYAGYGLPQADLIQEGNIGLMKAVRRFNPEVGVRLVSFAVHWIKAEIHEYVLRNWRIVKVATTKAQRKLFFNLRKTKQRLGWFNQDEVEMVARELGVTSKDVREMESRMAAQDMTFDLSSDDDSDSQPMAPVLYLQDKSSNFADGIEDDNWEEQAANRLTDAMQGLDERSQDIIRARWLDEDNKSTLQELADRYGVSAERVRQLEKNAMKKLRAAIEA
notes: also called E?32
[3]
  binding result: binds
[4]
  binding result: no binding
[5]
  binding result: binds
[6]
  binding result: no binding
[7]
  binding result: binds
[8]
  binding result: binds
[9]
  binding result: no binding
[10]
  binding result: binds
[11]
  binding result: binds
[12]
  binding result: no binding
[13]
  binding result: binds

B3: σF of E. coli (the cell's own) (other)
chain: MNSLYTAEGVMDKHSLWQRYVPLVRHEALRLQVRLPASVELDDLLQAGGIGLLNAVERYDALQGTAFTTYAVQRIRGAMLDELRSRDWVPRSVRRNAREVAQAIGQLEQELGRNATETEVAERLGIDIADYRQMLLDTNNSQLFSYDEWREEHGDSIELVTDDHQRENPLQQLLDSNLRQRVMEAIETLPEREKLVLTLYYQEELNLKEIGAVLEVGESRVSQLHSQAIKRLRTKLGKL
[14]
  binding result: binds
[15]
  binding result: binds
[16]
  binding result: binds
